This data set is described as follows: soluble on expression in E. coli; label from the status in PepcDB or PDB records.
Take “MVKWQATLSTTEPYNYIGIQNVRQGNRNTEVLEAILVENALPLDLTGCEVFFESVIDNKYPIQRAAKIVNAKKGIIQYTFDEYSMQSLHRQEAYFSIHKGDNLIGSTQNFSYFVVNAASKTEGEMGSYWQSIEDLIADMTAFINENKGDFTAWMNARKEEFEKWRKNQQDTFEAWRNGQETDYLKWFESIKDILKTIDPGGTMLAELMDARVDIQGVRHNSLSERLLADMNYLYHRLEERLYTIKYGNVNTLEILEDDSFSKNHEVEVLGTVNHPIEEGALIIATVDDSKQNVFTIEGVDNG”: the “soluble on expression in E. coli” value is “not soluble”.
Under “MEIEKENGSKRLAVLIDADNAQASVLGELLAEISKYGTLNIKRAYGDWTSSNLKSWKEHLHKYAIAPIQQFNYTSGKNATDSALIIDAMDLLHDAPLEGFCLVSSDSDFTRLATRIRESGLVVYGFGEKKTPEAFVAACDKFIYTEILRQEEQRRPESSWNDSWSKSESKALKSIIQPAIKATMKEDDWVPLASIGLYISKNHPAFDPRNYGYDKLGRLIETLDFVELKKIPFKDGSSNTHVMVRLRSLEHHHHHH” stands “not soluble”; under “MAHHHHHHMTLETTPAPTFSSKKELYDWLVKQVEALVHDMSKRFTPQANLVIGLSNTAALCFYELNRFCNPEAALEKLRVNWFGFYLFQAPGLLALGPFQGRPACTEIRVGKGVCGTVAESGESMVVQSVHEFPGHIACDSASKSEIAVPVLIENGSVVAVIDVDSTELGHFSEEDREGLERMAAVLAQHLDFPMARALAVNPALGLPGYSALAGGEKALQPHGDAEAVPQATPVTTTTTTPATVTAVTRIPFFKVEVKQPDVTTKCVGGWQFTRTNLDRIMTQDETKQLQDSLGISALPEIAFQGKTLSVSPESDREHPWLHFSVEALMCSAAEYYQTEEFKTLVNPQLRIPVSAGWESFHFEKYDPKVDWAWRNNFCGLVPDRGRLVERPRDAADAPGINWDILKDTSLLILFYGDFDMMEDDLRDHGMVTSSVKYRVMSSAFFVLFRHFVRVDNHEIWMREVRVFHEFGKTRTPSGVPHIVFLEQLRHVRIAEPVEGVDWKSMSPDAISAKATVLLSREWMLEKVATA”, “not soluble”.
The same measure for “MTLEEARKRVNELRDLIRYHNYRYYVLADPEISDAEYDRLLRELKELEERFPELKSPDSPTLQVGARPLEATFRPVRHPTRMYSLDNAFNLDELKAFEERIERALGRKGPFAYTVEHKVDGLSVNLYYEEGVLVYGATRGDGEVGEEVTQNLLTIPTIPRRLKGVPERLEVRGEVYMPIEAFLRLNEELEERGERIFKNPRNAAAGSLRQKDPRITAKRGLRATFYALGLGLEEVEREGVATQFALLHWLKEKGFPVEHGYARAVGAEGVEAVYQDWLKKRRALPFEADGVVVKLDELALWRELGYTARAPRFAIAYKFPAEEKETRLLDVVFQVGRTGRVTPVGILEPVFLEGSEVSRVTLHNESYIEELDIRIGDWVLVHKAGGVIPEVLRVLKERRTGEERPIRWPETCPECGHRLLKEGKVHRCPNPLCPAKRFEAIRHFASRKAMDIQGLGEKLIERLLEKGLVKDVADLYRLRKEDLVGLERMGEKSAQNLLRQIEESKKRGLERLLYALGLPGVGEVLARNLAARFGNMDRLLEASLEELLEVEEVGELTARAILETLKDPAFRDLVRRLKEAGVEMEAKEKGGEALKGLTFVITGELSRPREEVKALLRRLGAKVTDSVSRKTSYLVVGENPGSKLEKARALGVPTLTEEELYRLLEARTGKKAEELV”: “soluble”.
Under “MSMLQRPGYPNLSVKLFDSYDAWSNNRFVELAATITTLTMRDSLYGRNEGMLQFYDSKNIHTKMDGNEIIQISVANANDINNVKTRIYGCKHFSVSVDSKGDNIIAIELGTIHSIENLKFGRPFFPDAGESIKEMLGVIYQDRTLLTPAINAINAYVPDIPWTSTFENYLSYVREVALAVGSDKFVFVWQDIMGVNMMDYDMMINQEPYPMIVGEPSLIGQFIQELKYPLAYDFVWLTKSNPHKRDPMKNATIYAHSFLDSSIPMITTGKGENSIVVSRSGAYSEMTYRNGYEEAIRLQTMAQYDGYAKCSTIGNFNLTPGVKIIFNDSKNQFKTEFYVDEVIHELSNNNSVTHLYMFTNATKLETIDPVKVKNEFKSDTTTEESSSSNKQ” stands “soluble”; under “MHNIYFYKDKNGNEPVFDYMRELTSKKGKDSRIKLNKINDYIELLSQHGTRAGEPYIKHLDAEIWELRPLRDRILFVAWMDGSFVLLHHFMKRTQKTPKREIEQAKRELADLKERGLDNEK”, “not soluble”.
As to “MAHHHHHHMLHPSNALLTALLFVTTRMTNVESVKKKPLPYVKNYNLCDRSVRGIPSRHTKGTIRASTNPITTAPNEDKSDVYTPPISSGN”, the “soluble on expression in E. coli” value is given as “soluble”.
Regarding “MTTAITPDKKKLVSPKPTKTTSDKSKTKPRRSSKTSKKRKSKKGLFGCCAKKRKTKRSKKSAKRTKRSAPKKAPKKAPMKAPSKPAAKLVPQQAQASLQKPIQSGIVDADATVKTVVPRPPTPIPPTGVKPEPAPRSEPLYQPRSVSSTTPRTSATTGTTEQMVTAPATLPPPSAESKHLPQDPPGDASSPRVQRQYTAEKYSKEDQDDDDQKDLRKSVAYPSHKFFMTQYVKDECRVRRWVYEDSVPLMMESNMKHMLRMASNRIAACQSDKARRCDMMKDLNEMTEILDGNF”, the “soluble on expression in E. coli” value was “not soluble”.
Consider “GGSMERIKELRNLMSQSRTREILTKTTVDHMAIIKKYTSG”, for which the “soluble on expression in E. coli” value is reported as “soluble”.
The same measure for “MFEKWIGLTLLLNSLAYPCQKVTISFKQYENLLHIHQKGCDNEVMCRTLISIALLESSLGLNNRREKSLKDTSYSMFHITLNTAKKFYPTYSKTLLKFKLLNDVGFAIQLAKQILKENFDYYKQKHPNKSVYQLVEMAIGAYNGGMKHNPNGAYVKKFRCIYSQVRYNE”: “not soluble”; for “MGSDKIHHHHHHMSKKQEEIAIKEQRLLSMMEENELEGICLSRAANFAWLTAGSNNRVVWGQETGAAALVIVEGRKFLVAPQNEIERLMLEQVADLGFEPWTYEWYEDRQQAIARLVGNKKIGSDIPLGNWPVIEAELKRLRFSLTDHEVERAEKLAAICSDDLAAVCQAIVPGWSEWNIQVELSNRLLKQGVRASVLLVGADDRTRFKHPLPTLNPVCNYVIIGLVGEQCGLHMALTRSIYFGRVPEALRQNYNCCLAVERTYWENSVVDADSQKVFQQGINAYADLGHPEEWKRHHQGGAIGYAPREFRAGEGRREVMQDRQMLAWNPTVENTKCEDTCLVTPTGLKSMTTVPSWWPTTTVKAGNINFLRPLILEK”: “not soluble”; for “MKYWLYTSLFLALIFSFRSYANSDIWILIDTLEQRLSVMRGDKAQLAFNNIAIGRYGASSSRMKGDNQTPLGSFQISWIKQHHRYYRFFGVDFPNQEAADLALAEKRISRQAWLSITKAIESSRLPPQDTPLGGYIGIHGIGRGDRTVHARFNWTNGCVALTNAQIDELSSWIKIGTKVVIR”: “not soluble”.
The same measure for “MSNTKTASTGFAELLKDRREQVKMDHAALASLLGETPETVAAWENGEGGELTLTQLGRIAHVLGTSIGALTPPAGNDLDDGVIIQMPDERPILKGVRDNVDYYVYNCLVRTKRAPSLVPLVVDVLTDNPDDAKFNSGHAGNEFLFVLEGEIHMKWGDKENPKEALLPTGASMFVEEHVPHAFTAAKGTGSAKLIAVNF”: “soluble”; for “MLNLFRNRKRNGAGPTIKKAQKMPELDDFLSNQDYEGAISLLNHKLKAGNLDREEEDSLQLWLAHCYYRLRNYEEAANVYTFLMNKDDAPAELGVYLACCKFYLKQYIEAKSIAEKCPKTPLCIRLMMNVSLRLNDEKRILTFHSSLGDTLEDRLSLAGVNYSRMHYQDAIEVYTSVLQTSPNLIGLNVNMALCYAKMDYPHVAYNLIKNYLRNFPNSPFAKNLLLSVLYRTITSKTTVDEKSELARNIDQEGLTMVSDMEALLKQKLYPEIEYICKHNLVLFKNCETALQVLPSLMKHIPEARVNLILYHLNKNNVKDAISLCKDFDPVTPYEFLVKALTFLRHGQETNSREHLKIAENFFQMVGESGLVQDTIAGRQSSAAYLFLSFKFDDVITYLKSIEAYFTNNDDFLLNLAQAYLMYKNYVAAEKLFIRVSGPERDKILYKSMLARCYVRNKKPQSAWDMMLKTNNPSDRMSLLKVIAQDCYIANEFYYASKAFHEIEISDPTTENWSGKRGACAGLFRQLANHKTDPILISQMREVVHLVAMKPHSNCEFLLKVVRNWAETHNVNIIN”: “not soluble”.
The same measure for “MDLTVEPNLHSLITSTTHKWIFVGGKGGVGKTTSSCSIAIQMALSQPNKQFLLISTDPAHNLSDAFGEKFGKDARKVTGMNNLSCMEIDPSAALKDMNDMAVSRANNNGSDGQGDDLGSLLQGGALADLTGSIPGIDEALSFMEVMKHIKRQEQGEGETFDTVIFDTAPTGHTLRFLQLPNTLSKLLEKFGEITNKLGPMLNSFMGAGNVDISGKLNELKANVETIRQQFTDPDLTTFVCVCISEFLSLYETERLIQELISYDMDVNSIIVNQLLFAENDQEHNCKRCQARWKMQKKYLDQIDELYEDFHVVKMPLCAGEIRGLNNLTKFSQFLNKEYNPITDGKVIYELEDKEGLVPRGSLEHHHHHH”: “soluble”; for “MLTEIGKIIRQRRQQHGITIEQLAEQSNVSISLISRLERGKVDNIKLQSLTAIAETLNLKIADFFRDELLQSPNVVALLDYLSDLPAHQREELAGTLLKLLRLSKS”: “not soluble”.
For “MEDLKHSDALVREQATKKLWRIWFQQKGMYGLEKIDQSQKLLDAGEITEAEVMLTQLIQEQPDFAEAWNRRAFLYYSMGEYQKSLADCQMVIQINPVHFGALHGIGLCYAALGKYAKAIKAFKRALEIQPYSLVNQKLILECTFRLSLEHHHHHH”, the “soluble on expression in E. coli” value is “soluble”.
In the case of “MSLSASFTGAGFFKGGKTLDFSKLSYLSNSFMSLPSTVRNKQASQTAKNKSMIEFIEKIQSKNIVVRQEERGIVISLAADAFFDSASADVKLEENRDSIQKIASFIGFLSPRGYNFKIEGHTDNIDTDVNGPWKSNWELSAARSVNMLEHILNYLDQSDVKRIENNFEVSGFGGSRPIATDDTPEGRAYNRRIDILITTDASLSFPKEGHHHHHH”, the “soluble on expression in E. coli” value is listed as “soluble”.
As to “SNQECPDYLRELIRKTKTLTEKPFGIGVVLAFPHDLNIKTILEEKVAVLQLYWGDCSQELVDDAHFAGVKVIPQVGNVEEARKAVAVGVDAIIVQGREAGGHVIGKDGLFSLLPRVVDLVGERDIPVIAAGGIVDGRGYVAALSLGAQGVCLGTRFVATHESYAHPIYKRKLIEYEKTEYTDVFGRARWPGAPQRVLETPFFDDWRSLPAHENEVNQPIIGRSTIHGVEKEIRRFSGTVPNMTTTGDLESMAMYAGQSVGLIKEILPAGEVVKSLVEEAQALILQKFNNATTT”, the “soluble on expression in E. coli” value was “soluble”.
Turning to “MGSDKIHHHHHHAACQDEDHTVPTLPSGNDPEINDPVVEFYDWEKNRTELLTSTDMVLLYGGGHHRTPYTWDKERVSSYIRYVDTDNQSHWLFDSFLFLEIMDTGTGGANKMFAKGYNLESANQADWTKLIDYYFQSETGIGALDASVKEASAILGTPRQKRQIVISIPEPIVYQHPEQASSSTKYWGKIDNQTLDFSNSADRIKACKWYIDQVRAKFNEKNYQHVELAGFYWLAEKATDTRDILNAVAIYLNKLKYSFNWIPYYGADGYNQWKSLGFNYAYFQPNYFFNESVPDSRLEDACQKALTYDMHMELEFDDNALNSRGKAYRLKNYMSAFKKHGIWEKKRLAYYQGSASLLTLKKSGNAADTQLYHEFCNFVISRPIRSSH”, the “soluble on expression in E. coli” value was “not soluble”.

(Values after the DeepSol protein solubility set.)
